Results: article PMC314469, “Protein Interaction Networks by Proteome Peptide Scanning” (PLoS Biology, 2004)

Target: T1, GST-Abp1 SH3 domain (S. cerevisiae, UniProt P15891 532-592)
T1 construct: SH3 domain of Abp1, S. cerevisiae
T1 sequence (looked up): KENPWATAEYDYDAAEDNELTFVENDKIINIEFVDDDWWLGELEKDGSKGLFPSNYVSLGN
Assay: SPR; BIAcoreX; GST-fused SH3 domains (and GST as control) amine-coupled to CM5 chips; peptides flowed at 25°C in 10 mM HEPES, 150 mM NaCl, 3.4 mM EDTA, 0.005% P20, pH 7.4, 15 μl/min, 500 μM to 65 nM; steady-state model
Conditions: both partners purified

Kd: ≥ 100 µM
B1: Ynl094w peptide RRPPPPPIPSTQKP (peptide)
peptide: RRPPPPPIPSTQKP
notes: stretch of Ynl094w, S. cerevisiae; also called tetradecapeptide in the Ynl094w protein
